{"source": "paper PMC3089910", "about": "(Analytical biochemistry, 2010)", "binders": {"B1": {"name": "rTp34, Tp34 from Treponema pallidum, in the presence of Zn2+ (natural protein)", "chain": "CGGGGEHQHGEEMMAAVPAPDAEGAAGFDEFPIGEDRDVGPLHVGGVYFQPVEMHPAPGAQPSKEEADCHIEADIHANEAGKDLGYGVGDFVPYLRVVAFLQKHGSEKVQKVMFAPMNAGDGPHYGANVKFEEGLGTYKVRFEIAAPSHDEYSLHIDEQTGVSGRFWSEPLVAEWDDFEWKGPQW"}}, "key": {"AUC": {"molecular_target": "the molecule itself", "test": "AUC"}, "[1]": {"molecular_target": "human lactoferrin (hLF), iron-free, in the presence of Zn2+ (human)", "test": "AUC"}}, "data": [{"binder": "B1", "values": [{"measurement": "stoichiometry N", "setting": "AUC", "value": 2}, {"measurement": "stoichiometry N", "setting": "[1]", "value": 2}]}]}
